Test results taken from patent publication US9120851B2, “Human antibodies to human angiopoietin-like protein 4” (Regeneron Pharmaceuticals, Inc., priority 2009, dated 2015).

Legend:
[1] = tested on: obese rhesus monkeys (Macaca mulatta); test: Phase II pilot PK/PD study in obese rhesus monkeys; assay type: in vivo, rhesus monkey (Macaca mulatta); conditions: 10 mg/kg IV
Method: Phase II: In the second non-GLP pharmacokinetics/pharmacodynamic (PK/PD) study only H4H268P2 was administered as a single bolus intravenous (IV) injection to eight obese rhesus monkeys (Macaca mulatta). The step of pre-dosing vehicle injection was omitted in this study. Three baseline assessments were taken at days −7, −3 and 0 of the study and all eight monkeys received H4H268P2 at 10 mg/kg by IV on day 0. Serum samples were collected from the baseline period through day 35 post-dosing and assessed for serum lipid levels by ADVIA® 1800 Chemistry System (Siemens). Animals were grouped for data analysis according to average baseline TG levels so as to prospectively predict the effect: A. TG<150 mg/dL (n=3); B. 150 mg/dL<TG<500 mg/dL (n=4); and C. TG>1000 mg/dL (n=1).

[2] = Pharmacokinetic clearance in wild-type and hANGPTL4(+/+) mice, sandwich ELISA; assay type: in vivo, mouse; conditions: 1 mg/kg s.c.
Method: Pharmacokinetic clearance rates of anti-hANGPTL4 antibodies H4H268P2 and H4H284P were determined in wild-type mice and in transgenic mice expressing human ANGPTL4 [hANGPTL4(+/+) mice]. The strain background for both wild-type and transgenic mice was C57BL6 (75%) and 129Sv (25%). Separate cohorts consisting of 5 mice each of either wild-type or hANGPTL4(+/+) mice received subcutaneously (s.c.) 1 mg/kg of H4H268P2, H4H284P, or an isotype-matched (hIgG4) control with irrelevant specificity. Blood samples were collected at 0 hour, 6 hours, 1 day, 2 days, 3 days, 4 days, 7 days, 10 days, and 15 days, 22 days, and 30 days after the injection. Serum levels of human antibodies were determined by a sandwich ELISA. Briefly, a goat polyclonal anti-human IgG (Fc-specific) capture antibody (Jackson ImmunoResearch, PA) was coated in 96-well plates at a concentration of 1 μg/mL and incubated overnight at 4° C. After the plates were blocked with BSA, serum samples in a six-point serial dilution and reference standards of the respective antibody in a twelve-point serial dilution were added to the plate and incubated for one hour at room temperature. After washing with a suitable washing buffer, captured human antibodies were detected using the same goat polyclonal anti-human IgG (Fc-specific) antibody conjugated with horse radish peroxidase (HRP) (Jackson ImmunoResearch, PA) and developed by standard colorimetric response using tetramethylbenzidine (TMB) substrate, measuring absorbance at 450 nm in a plate reader. Concentrations of human antibodies in serum were determined using the reference standard curve generated for the same sample plate.

[3] = tested on: obese rhesus monkeys (Macaca mulatta); test: Phase I pilot PK/PD study in obese rhesus monkeys; assay type: in vivo, rhesus monkey (Macaca mulatta)
Method: Phase I: In a pilot non-GLP pharmacokinetics/pharmacodynamic (PK/PD) study, H4H268P2 and H4H284P were administered as a single bolus intravenous (IV) injection, to obese rhesus monkeys (Macaca mulatta). Rhesus monkeys were selected because this species is closely related, both phylogenically and physiologically, to humans and is a species commonly used for nonclinical toxicity evaluations. Obese monkeys that had been on a high fat diet for greater than 6 months were selected because they typically display moderately elevated TG levels (i.e., mean >100 mg/dL; hyper-TG). Eight confirmed healthy, male monkeys were acclimated and assigned to the study for baseline assessment for 7 days prior to dosing. All animals received a vehicle (10 mM histidine, pH 6) IV infusion on Day −5, after which four of them received H4H268P2 and another four H4H284P at 10 mg/kg IV on day 0.
Serum samples were collected from the baseline period through day 35 post-dosing and assessed for serum lipid levels by ADVIA® 1800 Chemistry System (Siemens). The average baseline for each animal was determined based on the samples taken on Days −7, −5 and 0. […] Thus the data analysis was done with 3 animals in each group. Percent (%) changes of serum TG levels from the baseline were determined for each animal and averaged for each Ab group.

[4] = animals with baseline 150 mg/dL<TG<500 mg/dL

B1: H4H268P2: IgG4 version of H1H268P with a single amino acid substitution in framework region 1, HCVR/LCVR SEQ ID NOs 487/44 (antibody, V domains shown)
VH: QVQLQQSGAGLLKPSETLSLTCTVYGGSFSIHHWTWIRHPPGKGLEWIGEINHRGSTNYNPSLKSRVTISIDTSKNQFSLKLSAVTAADTAVYYCARGLRFLDWLSSYFDYWGQGTLVTVSS
VL: DIQMTQSPSSLSASVGDRVTITCRASQGISDYLAWYQQKPGKVPNLLIYAASALQSGVPSRFSGSGSGTDFTLTISSLQPEDVATYYCQNYNTAPLTFGGGTKVEIK
modifications: IgG4 constant region
[1]; [4]
  HDL-C, in words: increased
  LDL-C or Total-C, in words: no effect
  decrease in TG levels from baseline: 50-68%
[1]; animals with baseline TG<150 mg/dL (normal TG levels)
  response of fasting TG, in words: largely unresponsive
[1]; individual animal with baseline TG >1000 mg/dL
  TG level, in words: dramatic and rapid drop in TG level
[2]; Wild-type mice
  Cmax: 18400 ng/mL
[2]; hANGPTL4(+/+) mice
  Cmax: 13300 ng/mL
[2]; hANGPTL4(+/+) mice, over the 30-day period
  AUC: 37000 ng·h/mL
[3]; 10 mg/kg IV
  additional lipids, such as LDL-C and HDL-C, in words: Moderate effects
  total-C, in words: unchanged
[3]; 10 mg/kg IV, any time point after infusion
  injection site reactions or other adverse effects: No injection site reactions or other adverse effects were observed
[3]; day 4 post-dosing, 10 mg/kg IV, three mildly hyper-TG animals
  maximal reduction of serum TG from baseline: 57%
[3]; single obese animal with low TG levels, 10 mg/kg IV
  fasting TG's or any other lipid parameters, in words: did not yield any significant effect
[3]; until approximately Day 25, 10 mg/kg IV, three mildly hyper-TG animals
  mean serum TG levels: ≤ 100 mg/dL
